For this data set, the target named is Hfq (His6-tagged) (UniProt P0A6X3). The data set is described as follows: EMSA. To be noted: Single-RNA EMSA: 10 mM Tris-HCl pH 7.4, 0.1 mM EDTA, 10 mM NH4Cl, 10 mM NaCl, 10 mM KCl, 1 mg/ml tRNA, 4% glycerol, RT 5 min; ~40 fmol RNA (legend; Methods say …). A general note: Mobility shift assays separate free from complexed probe on a gel.
Hfq (His6-tagged), sequence (P0A6X3 whole entry): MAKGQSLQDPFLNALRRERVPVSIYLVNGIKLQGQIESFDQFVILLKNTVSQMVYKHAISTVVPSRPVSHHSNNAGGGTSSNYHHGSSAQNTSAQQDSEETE

As for DppA mRNA 5' 166 nt (DppASal), the binding signal (fold higher affinity than AgvB and GcvB) stood at 10.
